Drawing on article PMC2868900, “Interaction between Thymidylate Synthase and Its Cognate mRNA in Zebrafish Embryos”, this text covers binding result and IC50 for 4 molecules.

Data set [1] has as its target T1, thymidylate synthase (TS) (zebrafish, UniProt A0ACM8Q3Q5 1-318). In words: EMSA; 100 ng TS; 37 C, 10 min; 100 ng TS (200 ng in Fig. 5B legend), 1 ng 32P TS mRNA; non-denaturing 5% acrylamide gel (60:1); binding buffer, salt and pH not given (cited ref. 16). The note with it: protein: recombinant, tags: His-tag removed by thrombin, chain copies: 2, hairpin (MFold).

Data set [2] has as its target T1, thymidylate synthase (TS). In words: competition EMSA; vs 32P full-length TS mRNA; 37 C, 10 min; 100 ng TS (200 ng in Fig. 5B legend), 1 ng 32P TS mRNA; non-denaturing 5% acrylamide gel (60:1); binding buffer, salt and pH not given (cited ref. 16). The note with it: protein: recombinant; tags: His-tag removed by thrombin; chain copies: 2; hairpin (MFold), 6 nt loop. (In general: In EMSA bound probe runs differently from free probe, usually more slowly.)

T1 sequence (A0ACM8Q3Q5 entry or part of it): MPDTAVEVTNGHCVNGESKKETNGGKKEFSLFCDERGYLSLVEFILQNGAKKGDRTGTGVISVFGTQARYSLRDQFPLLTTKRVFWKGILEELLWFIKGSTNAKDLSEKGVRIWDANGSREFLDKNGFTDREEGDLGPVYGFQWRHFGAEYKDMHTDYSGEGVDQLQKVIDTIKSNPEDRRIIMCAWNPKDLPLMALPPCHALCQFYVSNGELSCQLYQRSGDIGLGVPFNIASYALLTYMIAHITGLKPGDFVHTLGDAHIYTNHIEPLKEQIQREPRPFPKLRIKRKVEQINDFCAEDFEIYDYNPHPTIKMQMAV

Regarding CUCUUCAUGUGCUGCAGGAU (structured_RNA) [Δ20-18-TS RNA], the binding result in data set [1] (5 nt loop) is listed as “no binding”.

Take CUCUUGUUGUAAAGCAGGAU (structured_RNA) [Δ20-23-TS RNA (Δ20-22 in Table 1)]: the binding result in data set [1] (4 nt loop) is listed as “no binding”.

Take CUCUUGUUGUGCUGCAGGAU (structured_RNA) [TS:N20 (TS13-32)]: the IC50 in data set [2] was 0.62 ± 0.2 nM.

As for CUCUUGUUGUGCAGGAU (structured_RNA) [Δ20-TS RNA], the binding result in data set [1] is on record as “no binding”.

A word on the IC50: it is the concentration at which inhibition is half-maximal.
